According to patent US20130109618:

Columns and labels:
[1] = tested on: Ac-Agp57-Tat(47-57)-NH2 (HIV-1?); assay: EMSA; conditions: with 10 ug/mL poly(dI-dC); unit inferred, inferred nM from comparison with 67 ± 19
[2] = tested on: AgbTat (all six Arg replaced by Agb) (HIV-1?); assay: EMSA; conditions: apparent; with 10 ug/mL poly(dI-dC); 50 mM Tris-HCl pH 7.4, 50 mM KCl
[3] = tested on: AghTat (all six Arg replaced by Agh) (HIV-1?); assay: EMSA; conditions: apparent; with 10 ug/mL poly(dI-dC); 50 mM Tris-HCl pH 7.4, 50 mM KCl
[4] = tested on: ArgTat (Tat(47-57), Tat-Arg) (HIV-1?); assay: EMSA
[5] = tested on: Tat-Cit49 (HIV-1?); assay: EMSA; conditions: with 10 ug/mL poly(dI-dC), 25 C
[6] = tested on: Tat-Cit52 (HIV-1?); assay: EMSA; conditions: with 10 ug/mL poly(dI-dC), 25 C
[7] = tested on: Tat-Cit53 (HIV-1?); assay: EMSA; conditions: with 10 ug/mL poly(dI-dC), 25 C
[8] = tested on: Tat-Cit55 (HIV-1?); assay: EMSA; conditions: with 10 ug/mL poly(dI-dC), 25 C
[9] = tested on: Tat-Cit56 (HIV-1?); assay: EMSA; conditions: with 10 ug/mL poly(dI-dC), 25 C
[10] = tested on: Tat-Cit57 (HIV-1?); assay: EMSA; conditions: with 10 ug/mL poly(dI-dC), 25 C
[11] = tested on: AgbTat (all six Arg replaced by Agb) (HIV-1?); assay: FP; conditions: apparent; 1:1 fit; 50 mM Tris-HCl pH 7.4, 20 mM KCl, 0.02% Tween-20, room temperature
[12] = tested on: AghTat (all six Arg replaced by Agh) (HIV-1?); assay: FP; conditions: apparent; 1:1 fit; 50 mM Tris-HCl pH 7.4, 20 mM KCl, 0.02% Tween-20, room temperature
[13] = tested on: ArgTat (Tat(47-57), Tat-Arg) (HIV-1?); assay: FP; conditions: apparent; 1:1 fit; 50 mM Tris-HCl pH 7.4, 20 mM KCl, 0.02% Tween-20, room temperature, 25 nM RNA
[14] = tested on: Tat-Cit49 (HIV-1?); assay: FP; conditions: 50 mM Tris-HCl pH 7.4, 20 mM KCl, 0.02% Tween-20, room temperature
[15] = tested on: Tat-Cit52 (HIV-1?); assay: FP; conditions: 50 mM Tris-HCl pH 7.4, 20 mM KCl, 0.02% Tween-20, room temperature
[16] = tested on: Tat-Cit53 (HIV-1?); assay: FP; conditions: 50 mM Tris-HCl pH 7.4, 20 mM KCl, 0.02% Tween-20, room temperature
[17] = tested on: Tat-Cit55 (HIV-1?); assay: FP; conditions: 50 mM Tris-HCl pH 7.4, 20 mM KCl, 0.02% Tween-20, room temperature
[18] = tested on: Tat-Cit56 (HIV-1?); assay: FP; conditions: 50 mM Tris-HCl pH 7.4, 20 mM KCl, 0.02% Tween-20, room temperature
[19] = tested on: Tat-Cit57 (HIV-1?); assay: FP; conditions: 50 mM Tris-HCl pH 7.4, 20 mM KCl, 0.02% Tween-20, room temperature

HIV TAR RNA (F-TAR-RNA)
Kd [1]: 56 nM | Kd [2]: 0.031 µM | Kd [3]: 0.45 µM | Kd [4]: 0.067 µM | Kd [5]: 0.138 µM | Kd [6]: 0.235 µM | Kd [7]: 0.344 µM | Kd [8]: 0.279 µM | Kd [9]: 0.164 µM | Kd [10]: 0.146 µM | Kd [11]: 0.032 µM | Kd [12]: 0.036 µM | Kd [13]: 0.025 µM | Kd [14]: 0.094 µM | Kd [15]: 0.116 µM | Kd [16]: 0.102 µM | Kd [17]: 0.099 µM | Kd [18]: 0.055 µM | Kd [19]: 0.049 µM
